Numbering of substitutions follows the chain as printed.
B1: LAT-FFFY (monovalent LAT1Y, residue 48-233), phosphorylated (domain or fragment)
chain: GIQFKRPHTVAPWPPAFPPVTSFPPLSQPDLLPIPRSPQPLGGSHRTPSSRRDSDGANSVASFENEEPACEDADEDEDDFHNPGFLVVLPDSTPATSTAAPSAPALSTPGIRDSAFSMESIDDFVNVPESGESAEASLDGSREFVNVSQELHPGAAKTEPAALSSQEAEEVEEEGAPDYENLQELN
modifications: phosphotyrosine at Y226; Alexa Fluor 568 (site not stated)
B2: LAT-FFYF (monovalent LAT1Y, residue 48-233), phosphorylated (domain or fragment)
chain: B1 chain with F144Y, Y179F
modifications: phosphotyrosine at Y191; Alexa Fluor 568 (site not stated)

Assays:
Grb2-Alexa Fluor 647 [1] = target: T1, Grb2-Alexa Fluor 647 (UniProt P62993 1-217, Alexa Fluor 647 (site not stated)); experiment: single-molecule dwell time analysis
T1 sequence (P62993 whole entry): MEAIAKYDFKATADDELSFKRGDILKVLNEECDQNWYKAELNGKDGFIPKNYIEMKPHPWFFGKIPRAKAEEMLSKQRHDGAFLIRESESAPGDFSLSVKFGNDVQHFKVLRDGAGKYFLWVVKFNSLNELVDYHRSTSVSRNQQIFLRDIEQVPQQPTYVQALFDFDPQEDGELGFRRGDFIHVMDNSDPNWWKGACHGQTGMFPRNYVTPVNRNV

Grb2-Alexa Fluor 647 [2] = target: T1, Grb2-Alexa Fluor 647; experiment: ITC

Binder	koff (Grb2-Alexa Fluor 647 [1])	Kd (Grb2-Alexa Fluor 647 [2])
B1	1.4 s⁻¹	459 nM
B2	3.3 s⁻¹	195 nM

Reference: article PMC5761276 (Journal of the American Chemical Society, 2017)
